Source: the supplement of paper PMC9732359
± gives the uncertainty stated by the source.

Experiment: protein stability index of a GFP-peptide fusion (yeast GPS) (PSI 1-4); higher = more stable; sorted into four equal gates, so the index is relative within each strain
How it was run: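 Tiled 17-residue peptides from yeast proteins were fused downstream of GFP on a plasmid that also expresses Cherry, and the pooled library was carried in yeast. Mid-log cultures grown in leucine-free medium were sorted into four equal gates by GFP/Cherry fluorescence ratio. Plasmids from each gate were PCR-amplified and Illumina-sequenced, and reads were assigned to strains by barcodes. Each peptide's protein stability index is the sum, over gates, of the gate's read frequency multiplied by its gate number.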

Sequence | protein stability index (doa10∆) | protein stability index (pdr5∆) | protein stability index (san1∆) | protein stability index (ubr1∆)
LIPCKYLNRHADFFVRE [RPN7] | 2.62 ± 0.092 | 2.49 ± 0.12 | 2.18 ± 0.19 | 2.81 ± 0.11
ESDNYRLLPNGSNKAQI [YML031W/NDC1] | 3.08 ± 0.061 | 3.18 ± 0.067 | 2.78 ± 0.047 | 2.95 ± 0.035
QESSSLRLLEVTDDDRL [POP8] | 2.1 ± 0.068 | 2.08 ± 0.078 | 2.5 ± 0.12 | 1.65 ± 0.068
NNKNKRVTGAGGQQRRM [RPC53] | – | 2.78 ± 0.2 | – | 3.33 ± 0.073
AAKLKQTENDLKDIEAR [RPT1] | 2.48 ± 0.1 | 2.53 ± 0.1 | 2.46 ± 0.19 | 3.1 ± 0.087
ITSFGFGQKGGQAIVVH [FAS2] | 1.28 ± 0.074 | 1.44 ± 0.036 | 1.52 ± 0.088 | 1.69 ± 0.046
RSWTLTSEMKVLSIPPA [YGL100W/SEH1] | 2.13 ± 0.054 | 2.18 ± 0.069 | 2.37 ± 0.064 | 2.1 ± 0.072
ANNNMNDELVELLANKC [GRR1] | 2.79 ± 0.061 | 2.92 ± 0.044 | 2.78 ± 0.059 | 2.99 ± 0.046
NAKDIQIPVYDTFDGSD [FAS1] | 2.47 ± 0.078 | 2.56 ± 0.07 | 2.07 ± 0.052 | 2.29 ± 0.064
GPSVESYELRNTTTYKS [SNF5] | 2.75 ± 0.1 | 2.9 ± 0.099 | 2.41 ± 0.094 | 1.99 ± 0.082
NLYHVTEDGWIYHGNHD [PRE2] | – | 2.97 ± 0.23 | 2.88 ± 0.18 | 3.28 ± 0.22
PPLTYKNDTKILVLALE [PRP8] | 2.58 ± 0.057 | 2.48 ± 0.043 | 2.52 ± 0.055 | 2.04 ± 0.029
DAAAEEEKEEEAAEESD [RPP1B] | 3.19 ± 0.13 | 3.25 ± 0.13 | 3.04 ± 0.1 | 3.29 ± 0.073
KLFVSKEHAPYTDELEE [FAS2] | – | 1.61 ± 0.12 | 1.56 ± 0.28 | 1.83 ± 0.15
PISISNAPTFNPKYDTS [YAR002W/NUP60] | 3.03 ± 0.076 | 3.08 ± 0.068 | 2.71 ± 0.059 | 3.07 ± 0.06
NARKVVGASVVVVKNWG [RPS12] | 2.83 ± 0.15 | 2.69 ± 0.13 | 2.12 ± 0.24 | 2.67 ± 0.084
VAAAGITASTLLYADSL [CYT1] | 1.89 ± 0.068 | 2.12 ± 0.078 | 1.75 ± 0.14 | 1.93 ± 0.078
SKATGAPSANQGDEALS [RTT102] | 3.28 ± 0.12 | 3.32 ± 0.1 | 3.13 ± 0.1 | 3.14 ± 0.24
REQSSNDSETHTEDEST [BRN1] | – | 3.43 ± 0.27 | – | –
VNQTGSTKKDTVQLTFL [YCG1] | 3.05 ± 0.29 | 3 ± 0.16 | – | 2.9 ± 0.16
EKLTSKSLDEQLLLLSD [LRP1] | 3.16 ± 0.077 | 3.44 ± 0.065 | 2.94 ± 0.038 | 3.31 ± 0.036
FNVPVVSKQLGNGLVDE [YAR002W/NUP60] | – | 3.66 ± 0.22 | 3.26 ± 0.14 | 2.99 ± 0.14
TELMNRSPLVTPMDESS [SRP72] | 2.52 ± 0.071 | 2.58 ± 0.07 | 3.03 ± 0.076 | 2.59 ± 0.062
MQRHVKVDGKVRTDTTY [RPS4A] | 3.26 ± 0.1 | 3.28 ± 0.083 | 3.03 ± 0.088 | 3.06 ± 0.063
ATSTNPAKSASARGSYL [RPL17A] | 2.25 ± 0.033 | 2.59 ± 0.038 | 2.53 ± 0.038 | 2.66 ± 0.029

Sequence | protein stability index (doa10∆) | protein stability index (pdr5∆) | protein stability index (san1∆) | protein stability index (ubr1∆)
KSYYLNTVMLQGIFKNS [AAR2] | 1.34 ± 0.069 | 1.26 ± 0.076 | 2.14 ± 0.14 | 1.24 ± 0.054
PQNTTATTGGLFGSKPQ [YGR119C/NUP57] | 3.33 ± 0.1 | 3.36 ± 0.1 | 3.32 ± 0.13 | 3.53 ± 0.17
ELIALNLSEARLVIKEA [RPB4] | 3.01 ± 0.16 | – | – | 2.73 ± 0.18
VFESLEINNLIQLPASL [ARP9] | 1.61 ± 0.08 | 1.88 ± 0.05 | 1.83 ± 0.077 | 1.6 ± 0.055
EHKSQVVLYNYYLGQYY [CSN12] | 2.23 ± 0.12 | 1.81 ± 0.13 | 2.71 ± 0.086 | 2.03 ± 0.055
LMETLRTLRRKGDINPE [RPB2] | 3.08 ± 0.1 | 3.37 ± 0.079 | 2.85 ± 0.088 | 3.16 ± 0.069
LYTLVINDAGKAKKLIQ [RPL38] | 2.06 ± 0.11 | 2.19 ± 0.098 | 1.99 ± 0.1 | 1.56 ± 0.13
AICRNHIMEPCIECQPK [HRT1] | 2.26 ± 0.081 | 3.23 ± 0.13 | 2.17 ± 0.094 | 2.67 ± 0.074
NNSALSNVNSDIYFKLK [RPT3] | 3.12 ± 0.14 | 2.96 ± 0.12 | 3.27 ± 0.14 | 3.25 ± 0.073
VRSANEDGTFSVLYPDE [RRP43] | 3.13 ± 0.088 | 3.02 ± 0.088 | 3.18 ± 0.06 | 3.28 ± 0.1
DQAIVTETKRLVVIRFG [DIB1] | 2 ± 0.071 | 2.23 ± 0.062 | 2.03 ± 0.1 | 2.45 ± 0.067
DTLDGDLMDDMSDISDL [RPN3] | 2.71 ± 0.18 | 2.69 ± 0.076 | 2.11 ± 0.13 | 2.14 ± 0.1
AHRIMLTNILRMMGCVK [FAS2] | 1.86 ± 0.061 | 1.87 ± 0.06 | 1.9 ± 0.12 | 2.41 ± 0.19
GNILDFNLNLPPSSFGR [REC8] | 3.04 ± 0.075 | 3.24 ± 0.15 | 3.03 ± 0.055 | 2.94 ± 0.1
AVSIETALEHKVVNGNS [FAS2] | 2.14 ± 0.18 | 1.37 ± 0.1 | 1.34 ± 0.12 | 1.4 ± 0.051
LVDTPSNNTAATADTTH [NUT1] | – | – | 3.21 ± 0.059 | 3.17 ± 0.082
VAAFVNNYPNVELTYSL [BRR2] | 2.61 ± 0.11 | 2.82 ± 0.087 | 2.74 ± 0.082 | 2.9 ± 0.087
IFSVHGNTVVDGEGKVD [YCG1] | 3.12 ± 0.2 | 3.46 ± 0.18 | – | –
TPSQIGVLLRDAHGVTQ [RPS13] | 1.74 ± 0.083 | 1.81 ± 0.15 | 1.91 ± 0.13 | 2.05 ± 0.037
SSLHSPTSDEPVPESAG [SRB4] | 2.61 ± 0.065 | 3.16 ± 0.081 | 2.95 ± 0.063 | 3 ± 0.057
GKGESVIFNDNVTETYS [SIR3] | 3.08 ± 0.21 | 2.92 ± 0.14 | 2.88 ± 0.074 | 2.87 ± 0.2
IRSSRSRGIVIGSGAMS [RPP1] | 2.63 ± 0.085 | 2.77 ± 0.09 | 2.63 ± 0.091 | 2.46 ± 0.073
LAPARVRRRFARGMTSK [RPS15] | 2.99 ± 0.1 | 3.17 ± 0.094 | 3.11 ± 0.096 | 3.03 ± 0.082
TDGDSILYYDVLFITPD [BRR2] | 2.47 ± 0.068 | 2.5 ± 0.064 | 2.54 ± 0.068 | 2.94 ± 0.051
NEYPVADAVTKDLKLRR [REC8] | 3.08 ± 0.1 | 3.23 ± 0.095 | 3.28 ± 0.038 | 3.23 ± 0.041
